From patent US20220389465A1, “METHODS OF REDUCING BIURET IN UREA COMPOSITIONS” (Regents of the University of Minnesota, priority 2019, published 2022) come the findings set out here.

The data set relates to T1, NC(=O)NC(N)=O.
T1 construct: six-histidine tag (C); made in house; host or cells: Escherichia coli BL21(DE3)
Put plainly: Inhibition of biuret hydrolase by urea, kinetic constants. It counts as biochemical.

biuret hydrolase (Rhizobium johnstonii 3841), sequence (chain, as listed by the source): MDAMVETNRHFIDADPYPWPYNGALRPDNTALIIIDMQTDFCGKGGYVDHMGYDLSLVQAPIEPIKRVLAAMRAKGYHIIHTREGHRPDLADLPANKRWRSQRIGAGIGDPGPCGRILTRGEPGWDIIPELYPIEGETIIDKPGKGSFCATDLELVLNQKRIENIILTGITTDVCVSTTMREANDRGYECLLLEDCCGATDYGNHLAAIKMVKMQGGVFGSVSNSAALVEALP

Turning to “biuret hydrolase (Rhizobium johnstonii 3841)”, the Km is 23 µM.

The Km is the substrate concentration at which the rate is half of its maximum.
